Laboratory results published in US5985836A, “Alpha-1 proteinase inhibitor binding peptides” (Bayer Corporation, priority 1998, dated 1999).
Ends that are not written are not given here.

Molecular target: T1, A1PI (Homo sapiens, UniProt P01009)
T1 construct: Human plasma is currently the only approved source of therapeutic AlPI
Assay: A1PI binding on peptide-resin column, injection of 1 mg A1PI in equilibration buffer
Details: for Percent AlPI Eluted by Fraction, 1M NaCl / Percent AlPI Eluted by Fraction, 2% Acetic Acid / Percent AlPI Eluted by Fraction, Flowthrough: sequence order, 1 mg AlPI; for % of Total A1PI Eluted by Fraction (Based on Absorbance at 280 nm), 1M NaCl / % of Total A1PI Eluted by Fraction (Based on Absorbance at 280 nm), 2% Acetic Acid / % of Total A1PI Eluted by Fraction (Based on Absorbance at 280 nm), Flowthrough: 1 mg A1PI
Protocol: Confirmatory binding assays were performed in a column chromatographic format on a microbore HPLC using individual peptide sequences synthesized directly onto the Toyopearl 650 M Chelate resin which had been modified with Totda followed by an alanine residue (A-Totda-Toyopearl), at a final substitution density of 0.1 mmole/g resin. The resin was packed into 0.4×5 cm columns (Thomson, Springfield, Va.) and tested on the Michrom HPLC system (Michrom BioResources, Auburn, Calif.). The elution program for all trials utilized the following method. The column was pre-equilibrated with equilibration buffer (as above). 1 ml of sample was injected and allowed sufficient time to flowthrough the column using equilibration buffer. The column was then washed with step elutions of 1M NaCl and 3M NaCl in equilibration buffer. The column was exposed to equilibration buffer with 0.1M NaCl. Any remaining protein was eluted with elution buffer (2% by volume glacial acetic acid in water).
A Gilson FC204 fraction collector at the HPLC outlet collected individual eluates for further analysis. Fractions collected from the 2% acetic acid eluates were neutralized with 2M Tris, pH 10.5 to bring the pH to neutrality. The protein samples were reconstituted in equilibration buffer unless otherwise stated. The samples were analyzed by the integration of the absorbance at 280 nm or by immunonephelometry. The specific method of determination is presented for each figure.
Tables 2 and 3 present the elution profiles for 19 sequences based on the injection of 1 mg AlPI in equilibration buffer at 4° C. and 20° C., respectively. The columns were run at a constant flow rate of865 μl/min (413 cm/hr) or 523 μl/min (250 cm/hr). No dependence of the elution profile with flow rate was found. The Percent AlPI Eluted by Fraction represents the amount eluted in the flowthrough, 1M NaCl wash, and 2% acetic acid fractions relative to the total AlPI eluted. The percentages are based on either the integration of the peak areas at […]

[1] = VIWLVR N-terminal point mutations, 4° C.

T1 sequence (P01009 25-418): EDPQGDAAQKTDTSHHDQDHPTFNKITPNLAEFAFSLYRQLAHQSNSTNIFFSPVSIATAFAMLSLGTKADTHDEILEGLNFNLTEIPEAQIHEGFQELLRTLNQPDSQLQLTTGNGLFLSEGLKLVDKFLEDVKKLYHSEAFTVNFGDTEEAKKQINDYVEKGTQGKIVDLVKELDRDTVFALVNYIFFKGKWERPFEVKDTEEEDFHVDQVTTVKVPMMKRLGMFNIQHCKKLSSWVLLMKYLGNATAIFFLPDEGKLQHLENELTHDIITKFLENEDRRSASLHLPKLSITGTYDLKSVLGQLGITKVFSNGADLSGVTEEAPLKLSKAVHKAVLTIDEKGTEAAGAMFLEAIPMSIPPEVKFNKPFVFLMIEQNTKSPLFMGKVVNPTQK

Row | Substance | % of Total A1PI Eluted by Fraction (Based on Absorbance at 280 nm), 1M NaCl [1] [%] | % of Total A1PI Eluted by Fraction (Based on Absorbance at 280 nm), 2% Acetic Acid [1] [%] | % of Total A1PI Eluted by Fraction (Based on Absorbance at 280 nm), Flowthrough [1] [%] | also measured
1 | Ac-RVLFIV: N-terminal acetylated Ac-RVLFIV (listed under SEQ ID No:61) | – | – | – | Percent AlPI Eluted by Fraction, 1M NaCl (4° C.): 11%; Percent AlPI Eluted by Fraction, 2% Acetic Acid (4° C.): 13%; Percent AlPI Eluted by Fraction, Flowthrough (4° C.): 76%; Percent AlPI Eluted by Fraction, 1M NaCl (20° C.): 31%; Percent AlPI Eluted by Fraction, 2% Acetic Acid (20° C.): 50%; Percent AlPI Eluted by Fraction, Flowthrough (20° C.): 19%
2 | Ac-V I F L V R: N-terminal acetylated sequence Ac-VIFLVR (listed under SEQ ID No:37) (not fully specified (C-terminus); printed as Ac-VIFLVR) | – | – | – | % of Total A1PI Eluted by Fraction (Based on Absorbance at 280 nm), 1M NaCl (VIFLVR point mutations, 4° C.): 2%; % of Total A1PI Eluted by Fraction (Based on Absorbance at 280 nm), 2% Acetic Acid (VIFLVR point mutations, 4° C.): 22%; % of Total A1PI Eluted by Fraction (Based on Absorbance at 280 nm), Flowthrough (VIFLVR point mutations, 4° C.): 76%; % of Total A1PI Eluted by Fraction (Based on Absorbance at 280 nm), 1M NaCl (VIFLVR point mutations, 20° C.): 0%; % of Total A1PI Eluted by Fraction (Based on Absorbance at 280 nm), 2% Acetic Acid (VIFLVR point mutations, 20° C.): 0%; % of Total A1PI Eluted by Fraction (Based on Absorbance at 280 nm), Flowthrough (VIFLVR point mutations, 20° C.): 100%
3 | D I F L V R: point mutation of VIFLVR, position 1 (DIFLVR) | – | – | – | % of Total A1PI Eluted by Fraction (Based on Absorbance at 280 nm), 1M NaCl (VIFLVR point mutations, 4° C.): 6%; % of Total A1PI Eluted by Fraction (Based on Absorbance at 280 nm), 2% Acetic Acid (VIFLVR point mutations, 4° C.): 10%; % of Total A1PI Eluted by Fraction (Based on Absorbance at 280 nm), Flowthrough (VIFLVR point mutations, 4° C.): 84%; % of Total A1PI Eluted by Fraction (Based on Absorbance at 280 nm), 1M NaCl (VIFLVR point mutations, 20° C.): 9%; % of Total A1PI Eluted by Fraction (Based on Absorbance at 280 nm), 2% Acetic Acid (VIFLVR point mutations, 20° C.): 21%; % of Total A1PI Eluted by Fraction (Based on Absorbance at 280 nm), Flowthrough (VIFLVR point mutations, 20° C.): 70%
4 | DDWLVR: point mutation of VIWLVR on Ala-Totda-Toyopearl (not fully specified (C-terminus)) | 0 | 1 | 99 | –
5 | DNWLVR: point mutation of VIWLVR on Ala-Totda-Toyopearl (not fully specified (C-terminus)) | 9 | 1 | 90 | –
6 | DSWLVR: point mutation of VIWLVR on Ala-Totda-Toyopearl (not fully specified (C-terminus)) | 10 | 0 | 90 | –
7 | HDWLVR: point mutation of VIWLVR on Ala-Totda-Toyopearl (not fully specified (C-terminus)) | 30 | 0 | 70 | –
8 | HHWLVR: point mutation of VIWLVR on Ala-Totda-Toyopearl (not fully specified (C-terminus)) | 86 | 14 | 0 | –
9 | HSWLVR: point mutation of VIWLVR on Ala-Totda-Toyopearl (not fully specified (C-terminus)) | 89 | 11 | 0 | –

Further lines, with some results ahead:

Row | % of Total A1PI Eluted by Fraction (Based on Absorbance at 280 nm), 1M NaCl [1] [%] | % of Total A1PI Eluted by Fraction (Based on Absorbance at 280 nm), 2% Acetic Acid [1] [%] | % of Total A1PI Eluted by Fraction (Based on Absorbance at 280 nm), Flowthrough [1] [%] | Substance | also measured
10 | 37 | 10 | 53 | DHWLVR: point mutation of VIWLVR on Ala-Totda-Toyopearl (not fully specified (C-terminus)) | –
11 | 92 | 8 | 0 | HNWLVR: point mutation of VIWLVR on Ala-Totda-Toyopearl (not fully specified (C-terminus)) | –
